Reference: patent US20140087995A1 (published 2014)
Numbered stars: 1 amine (or outer) side, 2 acyl side, 3 side chain; on linkers, the order of the positions; unused ones are H or OH. Bridge positions count the residues as written; N and C are the ends. Side chains are listed from the residue outwards. Ends that are not written are not given here. * marks the point of attachment. C20 diacid = O=C(O)CCCCCCCCCCCCCCCCCCC(=O)*; γGlu = O=C(O)[C@H](CCC(=O)[*:2])N[*:1]

T1: rat amylin receptor (rat calcitonin receptor + rat RAMP 3) (rat, UniProt P32214 25-516; Q9JJ73 23-147)
T1 construct: whole, on cells; Receptor complex in cell membranes prepared from transiently transfected BHK tk'ts 13 cells (Assay VI); also called rAmylin-R; rat amylin 3(a) receptor
T1 sequence (looked up) 1: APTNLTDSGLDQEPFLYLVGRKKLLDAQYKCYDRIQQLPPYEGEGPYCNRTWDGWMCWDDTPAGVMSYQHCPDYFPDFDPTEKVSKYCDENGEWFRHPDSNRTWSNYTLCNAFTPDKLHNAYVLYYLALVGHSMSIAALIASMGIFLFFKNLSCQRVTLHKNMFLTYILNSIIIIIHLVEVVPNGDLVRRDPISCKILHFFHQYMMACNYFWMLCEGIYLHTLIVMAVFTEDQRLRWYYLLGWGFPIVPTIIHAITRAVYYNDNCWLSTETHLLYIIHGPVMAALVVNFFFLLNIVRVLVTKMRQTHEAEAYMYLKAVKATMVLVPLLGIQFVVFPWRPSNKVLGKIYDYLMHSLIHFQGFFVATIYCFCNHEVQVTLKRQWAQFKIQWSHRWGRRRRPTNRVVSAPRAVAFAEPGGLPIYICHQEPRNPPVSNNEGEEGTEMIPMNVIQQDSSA
T1 sequence (looked up) 2: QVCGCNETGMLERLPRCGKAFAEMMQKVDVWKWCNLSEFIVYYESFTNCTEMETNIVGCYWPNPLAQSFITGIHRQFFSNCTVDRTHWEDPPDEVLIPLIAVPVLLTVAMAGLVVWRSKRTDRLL

T2: rat calcitonin receptor (rat, UniProt P32214 25-516)
T2 construct: whole, on cells; In cell membranes prepared from transiently transfected BHK tk'ts 13 cells (Assay VIII); also called rCTR; rat calcitonin (a) receptor
T2 sequence (looked up): T1 sequence (looked up) 1

T3: human calcitonin receptor (human, UniProt P30988 25-474)
T3 construct: whole, on cells; Cell membranes from the stably transfected cell line (Assay VII); also called hCTR; hCT
T3 sequence (looked up): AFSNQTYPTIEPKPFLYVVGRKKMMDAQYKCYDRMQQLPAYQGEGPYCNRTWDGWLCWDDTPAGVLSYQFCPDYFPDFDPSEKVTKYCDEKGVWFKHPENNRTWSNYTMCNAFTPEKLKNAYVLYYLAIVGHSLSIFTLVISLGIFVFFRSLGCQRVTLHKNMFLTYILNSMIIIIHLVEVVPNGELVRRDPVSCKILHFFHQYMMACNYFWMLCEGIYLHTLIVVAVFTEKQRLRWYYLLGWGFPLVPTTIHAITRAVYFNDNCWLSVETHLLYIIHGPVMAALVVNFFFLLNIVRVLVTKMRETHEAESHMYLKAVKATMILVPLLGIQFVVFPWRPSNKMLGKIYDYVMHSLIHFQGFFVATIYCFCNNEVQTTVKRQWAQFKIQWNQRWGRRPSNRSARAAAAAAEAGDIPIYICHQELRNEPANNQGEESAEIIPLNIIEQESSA

B1: N^ε1-[(4S)-4-carboxy-4-(19-carboxynonadecanoylamino)butanoyl]-[Glu14,Arg17,Pro21,Pro27,His35]-h-amylin (peptide)
peptide: K([γGlu-C20 diacid])CNTATCATQRLAEFLRHSSPNFGAIPSSTNVGSHTY-NH2
modifications: disulfide 2-7; N-terminus assumed
SMILES: CC[C@H](C)[C@H](NC(=O)[C@H](C)NC(=O)CNC(=O)[C@H](Cc1ccccc1)NC(=O)[C@H](CC(N)=O)NC(=O)[C@@H]1CCCN1C(=O)[C@H](CO)NC(=O)[C@H](CO)NC(=O)[C@H](Cc1c[nH]cn1)NC(=O)[C@H](CCCNC(=N)N)NC(=O)[C@H](CC(C)C)NC(=O)[C@H](Cc1ccccc1)NC(=O)[C@H](CCC(=O)O)NC(=O)[C@H](C)NC(=O)[C@H](CC(C)C)NC(=O)[C@H](CCCNC(=N)N)NC(=O)[C@H](CCC(N)=O)NC(=O)[C@@H](NC(=O)[C@H](C)NC(=O)[C@@H]1CSSC[C@H](NC(=O)[C@@H](N)CCCCNC(=O)CC[C@H](NC(=O)CCCCCCCCCCCCCCCCCCC(=O)O)C(=O)O)C(=O)N[C@@H](CC(N)=O)C(=O)N[C@@H]([C@@H](C)O)C(=O)N[C@@H](C)C(=O)N[C@@H]([C@@H](C)O)C(=O)N1)[C@@H](C)O)C(=O)N1CCC[C@H]1C(=O)N[C@@H](CO)C(=O)N[C@@H](CO)C(=O)N[C@H](C(=O)N[C@@H](CC(N)=O)C(=O)N[C@H](C(=O)NCC(=O)N[C@@H](CO)C(=O)N[C@@H](Cc1c[nH]cn1)C(=O)N[C@H](C(=O)N[C@@H](Cc1ccc(O)cc1)C(N)=O)[C@@H](C)O)C(C)C)[C@@H](C)O
B2: N^ε1-[(4S)-4-carboxy-4-[[(4S)-4-carboxy-4-(19-carboxynonadecanoylamino)butanoyl]amino]butanoyl]-[Glu14,Arg17,Pro21,Pro27,Pro34,His35]-h-amylin (peptide)
peptide: K([γGlu-γGlu-C20 diacid])CNTATCATQRLAEFLRHSSPNFGAIPSSTNVGPHTY-NH2
modifications: disulfide 2-7; N-terminus assumed
SMILES: CC[C@H](C)[C@H](NC(=O)[C@H](C)NC(=O)CNC(=O)[C@H](Cc1ccccc1)NC(=O)[C@H](CC(N)=O)NC(=O)[C@@H]1CCCN1C(=O)[C@H](CO)NC(=O)[C@H](CO)NC(=O)[C@H](Cc1c[nH]cn1)NC(=O)[C@H](CCCNC(=N)N)NC(=O)[C@H](CC(C)C)NC(=O)[C@H](Cc1ccccc1)NC(=O)[C@H](CCC(=O)O)NC(=O)[C@H](C)NC(=O)[C@H](CC(C)C)NC(=O)[C@H](CCCNC(=N)N)NC(=O)[C@H](CCC(N)=O)NC(=O)[C@@H](NC(=O)[C@H](C)NC(=O)[C@@H]1CSSC[C@H](NC(=O)[C@@H](N)CCCCNC(=O)CC[C@H](NC(=O)CC[C@H](NC(=O)CCCCCCCCCCCCCCCCCCC(=O)O)C(=O)O)C(=O)O)C(=O)N[C@@H](CC(N)=O)C(=O)N[C@@H]([C@@H](C)O)C(=O)N[C@@H](C)C(=O)N[C@@H]([C@@H](C)O)C(=O)N1)[C@@H](C)O)C(=O)N1CCC[C@H]1C(=O)N[C@@H](CO)C(=O)N[C@@H](CO)C(=O)N[C@H](C(=O)N[C@@H](CC(N)=O)C(=O)N[C@H](C(=O)NCC(=O)N1CCC[C@H]1C(=O)N[C@@H](Cc1c[nH]cn1)C(=O)N[C@H](C(=O)N[C@@H](Cc1ccc(O)cc1)C(N)=O)[C@@H](C)O)C(C)C)[C@@H](C)O
B3: N^ε1-[(4S)-4-carboxy-4-[[(4S)-4-carboxy-4-(19-carboxynonadecanoylamino)butanoyl]amino]butanoyl]-[Glu14,Arg17,Pro21,Pro27,Pro34,Glu35,Pro37]-h-amylin (peptide)
peptide: K([γGlu-γGlu-C20 diacid])CNTATCATQRLAEFLRHSSPNFGAIPSSTNVGPETP-NH2
modifications: disulfide 2-7; N-terminus assumed
SMILES: CC[C@H](C)[C@H](NC(=O)[C@H](C)NC(=O)CNC(=O)[C@H](Cc1ccccc1)NC(=O)[C@H](CC(N)=O)NC(=O)[C@@H]1CCCN1C(=O)[C@H](CO)NC(=O)[C@H](CO)NC(=O)[C@H](Cc1c[nH]cn1)NC(=O)[C@H](CCCNC(=N)N)NC(=O)[C@H](CC(C)C)NC(=O)[C@H](Cc1ccccc1)NC(=O)[C@H](CCC(=O)O)NC(=O)[C@H](C)NC(=O)[C@H](CC(C)C)NC(=O)[C@H](CCCNC(=N)N)NC(=O)[C@H](CCC(N)=O)NC(=O)[C@@H](NC(=O)[C@H](C)NC(=O)[C@@H]1CSSC[C@H](NC(=O)[C@@H](N)CCCCNC(=O)CC[C@H](NC(=O)CC[C@H](NC(=O)CCCCCCCCCCCCCCCCCCC(=O)O)C(=O)O)C(=O)O)C(=O)N[C@@H](CC(N)=O)C(=O)N[C@@H]([C@@H](C)O)C(=O)N[C@@H](C)C(=O)N[C@@H]([C@@H](C)O)C(=O)N1)[C@@H](C)O)C(=O)N1CCC[C@H]1C(=O)N[C@@H](CO)C(=O)N[C@@H](CO)C(=O)N[C@H](C(=O)N[C@@H](CC(N)=O)C(=O)N[C@H](C(=O)NCC(=O)N1CCC[C@H]1C(=O)N[C@@H](CCC(=O)O)C(=O)N[C@H](C(=O)N1CCC[C@H]1C(N)=O)[C@@H](C)O)C(C)C)[C@@H](C)O

Target: T1, rat amylin receptor (rat calcitonin …)
Assay: SPA competition binding, displacement of 125I-rat amylin from membranes of BHK tk'ts 13 cells with rat calcitonin receptor + rat RAMP 3 (Assay VI)
Protocol: The binding assay was performed using scintillation proximity assay (SPA) beads (RPNQ0001) from PerkinElmer and cell membranes from the Amylin 3(a)/CRE-luc cells (as described in Assay (II)) were used. Membranes were prepared in the following way; the cells were rinsed with PBS and incubated with Versene for approximately 5 min before harvesting. The cells were flushed with PBS and the cell-suspension was centrifuged for 5 min at 1000 rpm. Cells were homogenized (ultrathurrax) in a buffer containing 20 mM Na-HEPES and 10 mM EDTA (pH 7.4) and centrifuged at 20.000 rpm for 15 min. The resulting pellet was resuspended, homogenized and centrifuged (20.000 rpm, 15 min) in a buffer containing 20 mM Na-HEPES and 0.1 mM EDTA (pH 7.4, buffer 2). The resulting pellet was resuspended in buffer 2 and protein concentration was measured (BCA protein Assay, Pierce). The homogenate was kept cold during the whole procedure. The membranes were kept at −80° C. until use. The assay was performed in a 384 well Optiplate (PerkinElmer) in a total volume of 40 ul. Membranes were mixed with SPA beads. Final concentration of membranes 35 ng/μL final and SPA beads was 0.05 mg/well. Test-compounds were dissolved in DMSO and further diluted in assay buffer (50 mM Hepes, pH 7.4, 1 mM CaCl2, 5 mM MgCl₂, 0.1% OA and 0.02% Tween20). […] The final mixture was incubated with shaking at 400 rpm for 120 min at 25° C. prior to centrifugation (1500 rpm, 10 min). Samples were analyzed on TopCounter™ (Packard). The IC₅₀ was calculated using (one site binding competition analysis) GraphPad Prism5 as a measure of receptor affinity.
Cells were grown in DMEM with 10% FBS and 1% Pen/Strep. Approximately 48 hours after transfection, the cells were harvested and membranes were prepared.

| IC50 [nM] | Binder |
| --- | --- |
| 1.16 | B1 |
| 0.288 | B2 |
| 0.152 | B3 |

Target: T2, rat calcitonin receptor
Assay: SPA competition binding, displacement of 125I-Calcitonin from membranes of BHK tk'ts 13 cells with rat calcitonin receptor (Assay VIII)

| IC50 [nM] | Binder |
| --- | --- |
| 26.3 | B1 |
| 21 | B2 |
| 1.61 | B3 |

Target: T3, human calcitonin receptor
Assay: ratio of binding IC50s: human calcitonin receptor (Assay VII) over human amylin receptor (Assay V)
Protocol: The resulting pellet was resuspended, homogenized and centrifuged (20.000 rpm, 15 min) in a buffer containing 20 mM Na-HEPES and 0.1 mM EDTA (pH 7.4, buffer 2). The resulting pellet was resuspended in buffer 2 and protein concentration was measured (BCA protein Assay, Pierce). The homogenate was kept cold during the whole procedure. The membranes were kept at −80° C. until use. The assay was performed in a 384 well Optiplate (PerkinElmer) in a total volume of 40 ul. Membranes were mixed with SPA beads. Final concentration of membranes 35 ng/μL final and SPA beads was 0.05 mg/well. Test-compounds were dissolved in DMSO and further diluted in assay buffer (50 mM Hepes, pH 7.4, 1 mM CaCl2, 5 mM MgCl₂, 0.1% OA and 0.02% Tween20). […] The final mixture was incubated with shaking at 400 rpm for 120 min at 25° C. prior to centrifugation (1500 rpm, 10 min). Samples were analyzed on TopCounter™ (Packard). The IC₅₀ was calculated using (one site binding competition analysis) GraphPad Prism5 as a measure of receptor affinity.
Membranes were prepared in the following way; the cells were rinsed with PBS and incubated with Versene for approximately 5 min before harvesting. The cells were flushed with PBS and the cell-suspension was centrifuged for 5 min at 1000 rpm. Cells were homogenized (Ultrathurrax) in a buffer containing 20 mM Na-HEPES and 10 mM EDTA (pH 7.4) and centrifuged at 20.000 rpm for 15 min. The resulting pellet was resuspended, homogenized and centrifuged (20.000 rpm, 15 min) in a buffer containing 20 mM Na-HEPES and 0.1 mM EDTA (pH 7.4, buffer 2). The resulting pellet was resuspended in buffer 2 and protein concentration was measured (BCA protein Assay, Pierce). The homogenate was kept cold during the whole procedure. The membranes were kept at −80° C. until use. Assay was performed in a 384 well Optiplate (PerkinElmer) in a total volume of 40 ul. Membranes were mixed with SPA beads.

| Ratio hCT/hAmylin binding | Binder |
| --- | --- |
| 26.4 | B1 |
| 27.3 | B2 |
| 0.4 | B3 |

Target: T2, rat calcitonin receptor
Assay: ratio of binding IC50s: rat calcitonin receptor (Assay VIII) over rat amylin receptor (Assay VI)

| Ratio rCT/rAmylin binding | Binder |
| --- | --- |
| 22.7 | B1 |
| 73 | B2 |
| 10.6 | B3 |
